# Target: T1, Cathepsin B from bovine spleen (bovine, UniProt P07688 80-332)
# Assay: cell-based or functional assay
row,Binder,"Cathepsin B inhibition test, 2 mM peptide"
1,Ac-Lys-His-OH [Ac-KH-OH],230
2,Ac-KHNN-OH [Ac-KHNN-OH],129
3,"Ac-QNKH-OH (also: MGO-modified, site not given here) [MGO-modified Ac-QNKH-OH]",97.8

# The remaining lines, values ahead:
row,"Cathepsin B inhibition test, 2 mM peptide",Binder
1,168,Ac-QNKHNN-OH [Ac-QNKHNN-OH]
2,51.3,"Ac-QNKHNN-OH (also: MGO-modified, site not given here) [MGO-modified Ac-QNKHNN-OH]"

# Target: T1, Cathepsin B from bovine spleen
# Assay: cell-based or functional assay
# Remark: another data set of the same source
row,"Cathepsin B inhibition test, 2 mM peptide",Binder
1,28.1,"Ac-PFKISIHL-OH (also: MGO-modified, site not given here) [MGO-modified Ac-PFKISIHL-OH]"
2,73.2,"Ac-KISIHL-OH (also: MGO-modified, site not given here) [MGO-modified Ac-KISIHL-OH]"
3,144,Ac-PFKISIHL-OH [Ac-PFKISIHL-OH]

# Target: T1, Cathepsin B from bovine spleen
# Assay: cell-based or functional assay
# Remark: another data set of the same source
row,"Cathepsin B inhibition test, 2 mM peptide",Binder
1,102,"Ac-HSSKLH-OH (also: MGO-modified, site not given here) [MGO-modified Ac-HSSKLH-OH]"
2,165,Ac-HSSK-OH [Ac-HSSK-OH]
3,107,"Ac-SSKS-OH (also: MGO-modified, site not given here) [MGO-modified Ac-SSKS-OH]"
4,119,Ac-SSKS-OH [Ac-SSKS-OH]
5,67.6,"Ac-SKLH-OH (also: MGO-modified, site not given here) [MGO-modified Ac-SKLH-OH]"
6,146,Ac-SKLH-OH [Ac-SKLH-OH]
7,122,Ac-HSSKLH-OH [Ac-HSSKLH-OH]

# Target: T1, Cathepsin B from bovine spleen
# Assay: cell-based or functional assay
# Remark: another data set of the same source
row,Binder,"Cathepsin B inhibition test, 2 mM peptide"
1,Ac-SSKSNNRHNN-OH [Ac-SSKSNNRHNN-OH],131
2,Ac-SSKSNN-OH [Ac-SSKSNN-OH],129
3,"Ac-SSKSNN-OH (also: MGO-modified, site not given here) [MGO-modified Ac-SSKSNN-OH]",107
4,"Ac-SSKSNNRH-OH (also: MGO-modified, site not given here) [MGO-modified Ac-SSKSNNRH-OH]",102
5,Ac-SSKSNNRH-OH [Ac-SSKSNNRH-OH],125

# Results, then the binder that gave them:
row,"Cathepsin B inhibition test, 2 mM peptide",Binder
1,104,"Ac-SSKSNNRHNN-OH (also: MGO-modified, site not given here) [MGO-modified Ac-SSKSNNRHNN-OH]"
2,110,"Ac-SSKSNNRHNNND-OH (also: MGO-modified, site not given here) [MGO-modified Ac-SSKSNNRHNNND-OH]"
3,164,Ac-SSKSNNRHNNND-OH [Ac-SSKSNNRHNNND-OH]
